For assay [1], the target named is T1, biotinylated human 4-1BB (recombinant Fc fusion protein of the extracellular domain of human 4-1BB) (human, UniProt Q07011 24-186, biotinylated (site not stated)).
T1 construct: Bought from BPS Bioscience; tie to the Fc fusion is by the Materials paragraph; also called h4-1BB; CD137; not shown: Fc part of the purchased fusion (BPS Bioscience)
As to the kind of experiment: SPR; accurate fit not possible due to slow off-rate. A general note: Surface plasmon resonance follows binding to a sensor surface in real time, without labels.

For assay [2], the target named is T2, cell membrane-bound human 4-1BB (endogenous, on ionomycin/PMA stimulated CCRF-CEM cells or primary CD8+ T … (human, UniProt Q07011 24-255)).
T2 construct: also called cell membrane-expressed human 4-1 BB; 4-1BB on CEM cells
T2 sequence (Q07011 24-255 limits assumed): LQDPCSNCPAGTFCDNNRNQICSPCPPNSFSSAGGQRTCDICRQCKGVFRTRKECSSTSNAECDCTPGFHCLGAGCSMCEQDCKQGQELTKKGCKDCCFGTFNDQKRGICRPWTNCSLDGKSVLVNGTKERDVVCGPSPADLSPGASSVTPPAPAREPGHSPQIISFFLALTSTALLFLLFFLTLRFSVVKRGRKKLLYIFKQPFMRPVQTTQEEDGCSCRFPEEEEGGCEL
As to the kind of experiment: flow cytometry on PMA/ionomycin stimulated CEM cells, anti-penta-His Alexa Fluor-488 detection. The procedure: Assay setup: Ankyrin repeat protein binding to cell membrane-bound human 4-1 BB on cells was measured by flow cytometry using the T lymphoblast cell line CCRF-CEM (ATCC® CCL-119™) stimulated with ionomcycin/PMA (phorbol 12-myristate 13-acetate) to express 4-1 BB. CEM cells cultured in RPMI medium supplemented with 10% (v/v) FBS+1% PenStrep were harvested and stimulated overnight in 96-well U-bottom plates using the same medium plus PMA (10 ng/ml) and ionomycin (500 ng/ml). […] Stimulated CEM cells were harvested, then 30,000 cells were incubated with increasing concentrations of His-tagged ankyrin repeat proteins in FACS buffer (PBS+2% (v/v) FBS+0.1% sodium azide) for 30 minutes on ice. […] After washing with PBS, cells were stained with Live/Dead Aqua dye (Thermo Fisher, No. L34957) and analyzed using a BD FACS Canto II or AttuneNxT cytometer.
The multivalent ankyrin repeat proteins were tested, together with binding proteins comprising only one corresponding 4-1 BB-specific ankyrin repeat domain (with our without a linked localizer), for binding to PMA/ionomycin stimulated CEM cells.
(In general: In flow cytometry, cells or beads pass a laser one at a time.)

Assay [3] addresses T1, biotinylated human 4-1BB (recombinant …). Nature of the assay: SPR (ProteOn), biotinylated human 4-1BB on NLC chip, PBST. The procedure: Briefly, biotinylated human 4-1 BB was diluted in PBST (PBS, pH 7.4 containing 0.005% Tween 20®) and coated on a NLC chip (BioRad) to a level of around 320 resonance units (RU) (600 RU for single trace SPR measurements). The interaction of ankyrin repeat protein and h4-1 BB was then measured by injecting 200 μl running buffer (PBS, pH 7.4 containing 0.005% Tween 20®) containing serial dilutions of ankyrin repeat proteins covering a concentration range between 50 nM and 0.5 nM for multi-trace SPR measurements or 50 nM for single trace measurements (on-rate measurement), followed by a running buffer flow for at least 30 minutes at a constant flow rate of 100 μl/min (off-rate measurement). The regeneration was performed using 30 μl of 10 mM Glycine pH 2 followed by 30 μl of 124 mM H₃PO₄. The signals (i.e. resonance unit (RU) values) of the interspots and a reference injection (i.e. injection of running buffer only) were subtracted from the RU traces obtained after injection of ankyrin repeat protein (double-referencing). Based on the SPR traces obtained from the on-rate and off-rate measurements, the on- and off-rate of the corresponding ankyrin repeat protein—4-1 BB interaction was determined.
Dissociation constants (KD) were calculated from the estimated on- and off-rates using standard procedures known to the person skilled in the art.

The term Kd denotes the equilibrium constant for the complex coming apart. By EC50 (read off the curve) is commonly meant the concentration at which the effect is half-maximal. A higher EC50 (read off the curve) goes with a need for much substance.

B1: DARPin® protein #51 (designed binder)
chain: GSDLGQKLLKAAQEGQDDEVRELLKAGADVNAKDLRGITPLHVAAWQGHLEIVEVLLKAGADVNAKDSKGETPLHLAAFRGHLEIVEVLLKAGADVNAQDQQGETPADLAALAGHVDIAEVLQKLNGSPTPTPTTPTPTPTTPTPTPTGSDLGQKLLKAAQEGQDDEVRELLKAGADVNAKDLRGITPLHVAAWQGHLEIVEVLLKAGADVNAKDSKGETPLHLAAFRGHLEIVEVLLKAGADVNAQDQQGETPADLAALAGHVDIAEVLQKLN
notes: not shown: TAA-specific ankyrin repeat domain (localizer)
In the case of B1, in assay [1], the Kd was under 0.02 nM.

B2: DARPin® protein #52 (designed binder)
chain: GSDLGDKLLHAAYYGQDDEVRILLAAGADVNAKDTQGLTPLHLAAAIGHLEIVEVLLKAGADVNAKDAYGETPLHLVASRGHLEIVEVLLKAGADVNAQDYSGRTPADLAAEYGHEDIAEVLQKLNGSPTPTPTTPTPTPTTPTPTPTGSDLGDKLLHAAYYGQDDEVRILLAAGADVNAKDTQGLTPLHLAAAIGHLEIVEVLLKAGADVNAKDAYGETPLHLVASRGHLEIVEVLLKAGADVNAQDYSGRTPADLAAEYGHEDIAEVLQKLN
notes: as for B1
For the molecule B2, the “EC50 (read off the curve)” value in assay [2] was about 8 nM.

B3: DARPin® protein #27 (designed binder)
chain: MRGSHHHHHHGSDLGKKLLEAARAGQDDEVRELLKAGADVNAKDHQGATPLHNAAWAGHLEIVEVLLKAGADVNAKDKAGYTPLHIAAITGHLEIVEVLLKAGADVNAKDQWGKTPLHLAAQVGHLEIVEVLLKAGADVNAQDKSGKTPADLAADAGHEDIAKVLQKLN
Turning to B3, the Kd in assay [3] was determined as 3.96 nM.

B4: DARPin® protein #55 (designed binder)
chain: GSDLGDKLLHAAYYGQDDEVRILLAAGADVNAKDTQGLTPLHLAAAIGHLEIVEVLLKAGADVNAKDAYGETPLHLVASRGHLEIVEVLLKAGADVNAQDYSGRTPADLAAEYGHEDIAEVLQKLNGSPTPTPTTPTPTPTTPTPTPTGSDLGDKLLHAAYYGQDDEVRILLAAGADVNAKDTQGLTPLHLAAAIGHLEIVEVLLKAGADVNAKDAYGETPLHLVASRGHLEIVEVLLKAGADVNAQDYSGRTPADLAAEYGHEDIAEVLQKLNGSPTPTPTTPTPTPTTPTPTPTGSDLGDKLLHAAYYGQDDEVRILLAAGADVNAKDTQGLTPLHLAAAIGHLEIVEVLLKAGADVNAKDAYGETPLHLVASRGHLEIVEVLLKAGADVNAQDYSGRTPADLAAEYGHEDIAEVLQKLN
notes: as for B1
Regarding B4, the “EC50 (read off the curve)” value in assay [2] is about 7 nM.

The values are drawn from patent US20220298212A1 (Molecular Partners, published 2022).
